Test results published in publication PMC2094093.

Biological target: Human Hsp90β (human) (UniProt P08238)
Assay: SEC

Chain of Human Hsp90β, P08238 1-724 (natural protein; other documents disagree on this pair) (P08238 whole entry): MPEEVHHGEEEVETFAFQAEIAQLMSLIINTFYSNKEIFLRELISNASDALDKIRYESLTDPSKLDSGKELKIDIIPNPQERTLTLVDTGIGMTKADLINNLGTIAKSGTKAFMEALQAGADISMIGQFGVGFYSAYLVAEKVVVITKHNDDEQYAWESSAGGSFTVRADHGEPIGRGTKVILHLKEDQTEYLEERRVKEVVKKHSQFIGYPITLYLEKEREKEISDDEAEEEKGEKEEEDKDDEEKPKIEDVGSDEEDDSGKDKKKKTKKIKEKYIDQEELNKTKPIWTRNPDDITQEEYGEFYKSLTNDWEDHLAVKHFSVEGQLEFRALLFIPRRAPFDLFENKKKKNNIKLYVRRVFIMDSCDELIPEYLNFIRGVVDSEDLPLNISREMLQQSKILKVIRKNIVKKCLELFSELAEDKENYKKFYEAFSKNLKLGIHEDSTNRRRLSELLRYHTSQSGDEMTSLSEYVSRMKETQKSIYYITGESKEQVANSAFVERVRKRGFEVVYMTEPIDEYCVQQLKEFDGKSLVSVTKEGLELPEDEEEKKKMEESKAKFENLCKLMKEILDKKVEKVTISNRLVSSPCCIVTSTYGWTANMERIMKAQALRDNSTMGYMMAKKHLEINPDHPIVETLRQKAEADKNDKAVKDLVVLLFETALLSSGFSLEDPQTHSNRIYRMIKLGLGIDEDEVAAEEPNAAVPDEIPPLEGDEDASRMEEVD

stoichiometry N: 2
Substance: Human Hsp90β, P08238 1-724 (natural protein; other documents disagree on this pair)
